# T1: KSRP KH3 (UniProt Q92945 323-418)
# T1 sequence: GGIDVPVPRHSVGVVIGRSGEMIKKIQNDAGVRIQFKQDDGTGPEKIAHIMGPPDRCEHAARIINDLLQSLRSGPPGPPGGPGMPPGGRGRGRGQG
# T2: KSRP KH1 (UniProt Q92945 130-218)
# T2 sequence: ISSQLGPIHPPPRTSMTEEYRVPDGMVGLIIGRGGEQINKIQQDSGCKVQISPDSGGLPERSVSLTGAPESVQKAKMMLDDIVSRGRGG
# T3: KSRP KH4 (UniProt Q92945 423-525)
# T3 sequence: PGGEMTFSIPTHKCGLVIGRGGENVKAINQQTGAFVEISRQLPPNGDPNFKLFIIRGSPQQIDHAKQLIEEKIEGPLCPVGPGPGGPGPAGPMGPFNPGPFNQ
# T4: KSRP KH2 (UniProt Q92945 233-305)
# T4 sequence: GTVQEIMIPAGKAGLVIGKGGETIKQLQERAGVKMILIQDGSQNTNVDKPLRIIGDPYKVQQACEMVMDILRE
# Legend:
# Experiment in all cases: NMR 15N-HSQC titration
# [1] = target: T1, KSRP KH3
# [2] = target: T2, KSRP KH1
# [3] = target: T3, KSRP KH4
# [4] = target: T4, KSRP KH2
# [5] = target: T1, KSRP KH3; remark: listed apart in the source
# [6] = target: T1, KSRP KH3; remark: listed apart in the source
binder,measurement,setting,value
UAUUAU (ssRNA),binding signal,[1],~100 fold weaker than UGGGU
UCCCC (ssRNA) [uCCCC],binding result,[2],no binding
same,binding result,[3],no binding
same,binding result,[4],no binding
same,binding result,[5],no binding
UAGGUU (ssRNA) [UAGGUU (UAGGUA in Fig 4b legend)],Kd,[6],6 ± 2 µM
UAGUAU (ssRNA),Kd,[6],26 ± 5 µM

# Source: publication PMC2532734
